According to paper PMC4470507:

What was measured:
[1] = biological target: PfCCT MΔK^R681H, R681H point mutant of the second catalytic domain construct of Plasmodium falciparum CTP:phosphocholine cytidylyltransferase (528–795, Δ720–737) (Plasmodium falciparum); assay: native MS; native electrospray, QTOF, positive ion mode; 5 mM NH4HCO3 pH 7.2; gel filtered protein at 0.4 μM monomer concentration; source temperature 80°C; dimer to monomers; 3 samples from different expressions
[2] = biological target: PfCCT MΔK^WT, second catalytic domain construct of Plasmodium falciparum CTP:phosphocholine cytidylyltransferase (528–795, Δ720–737) (Plasmodium falciparum); assay: as above

Substance: PfCCT MΔK^R681H, R681H point mutant of the second catalytic domain construct of Plasmodium falciparum CTP:phosphocholine cytidylyltransferase (528–795, Δ720–737) (domain or fragment)
- fold decrease of the dimer:monomer abundance ratio against PfCCT MΔK^WT [1]: 20 times lower

Substance: PfCCT MΔK^WT, second catalytic domain construct of Plasmodium falciparum CTP:phosphocholine cytidylyltransferase (528–795, Δ720–737) (domain or fragment)
- stoichiometry N [2]: 2
